Measurements from article PMC10627149 (Nature structural & molecular biology, 2023).

Biological target: T1, TSEN2 Y369A/H377A/K416A (endonuclease triple mutant in pCDNA3.1-TSEN2-Flag) (human, UniProt Q8NCE0 1-465, Y369A | H377A | K416A)
T1 sequence: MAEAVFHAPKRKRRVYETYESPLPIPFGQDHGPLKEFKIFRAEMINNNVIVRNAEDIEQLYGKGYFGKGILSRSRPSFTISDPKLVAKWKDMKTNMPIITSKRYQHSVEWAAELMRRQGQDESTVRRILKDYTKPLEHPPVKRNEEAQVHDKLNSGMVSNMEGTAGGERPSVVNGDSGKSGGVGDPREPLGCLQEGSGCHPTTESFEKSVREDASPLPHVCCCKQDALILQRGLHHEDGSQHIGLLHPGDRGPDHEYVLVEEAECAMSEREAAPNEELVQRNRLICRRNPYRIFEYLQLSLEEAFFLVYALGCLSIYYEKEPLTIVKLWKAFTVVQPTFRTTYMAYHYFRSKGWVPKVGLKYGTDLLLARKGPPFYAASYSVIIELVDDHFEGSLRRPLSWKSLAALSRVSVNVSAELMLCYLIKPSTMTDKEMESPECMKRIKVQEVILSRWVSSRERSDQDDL
Assay: cryo-EM structure

binding result: binds
B1: TSEN15-Flag (pCDNA3.1-TSEN15-Flag) (natural protein, human)
chain: MEERGDSEPTPGCSGLGPGGVRGFGDGGGAPSWAPEDAWMGTHPKYLEMMELDIGDATQVYVAFLVYLDLMESKSWHEVNCVGLPELQLICLVGTEIEGEGLQTVVPTPITASLSHNRIREILKASRKLQGDPDLPMSFTLAIVESDSTIVYYKLTDGFMLPDPQNISLRR
